Test results reported in paper PMC5454376 (Nature Communications, 2017).
Where no end group is shown, it is not given here.

Assays:
Conditions in all cases: both partners purified
[1] = molecular target: T1, Full-length human Gαi3, untagged (NMR sample) (human, UniProt P08754 1-354); experiment: NMR titration; 1H–15N TROSY and HNCO of 100 μM 2H,13C,15N-Gαi3 free and with a twofold molar excess of His-GIV-CT; 30 °C; 10 mM HEPES pH 7.0, 10 mM MgCl2, 5 mM DTT, threefold molar excess of GDP
T1 construct: Uniformly 2H,13C,15N labelled for NMR; also called Gαi3-GDP; 2H,13C,15N-Gαi3; source: E. coli BL21 Rosetta, pET24d(+), purified (His-Trap, tag cleavage, GST-Trap, Superdex 200); not shown: His tag, N-terminal, cleaved

[2] = molecular target: T1, Full-length human Gαi3, untagged (NMR …); experiment: NMR titration; 1H–15N TROSY and HNCO of 32 μM 2H,13C,15N-Gαi3 titrated with GIV peptide 1,671–1,696 (molar ratios 1:0 to 1:5); 30 °C; 10 mM HEPES pH 7.0, 10 mM MgCl2, 5 mM DTT, GDP; up to 3% DMSO
Human His-Gαi3 WT [3] = molecular target: T2, Human His-Gαi3 WT (human, UniProt P08754 1-354); experiment: fluorescence polarisation; fluorescein-labelled peptide 0.025 μM, G protein 0–8 μM; room temperature; 50 mM Tris-HCl pH 7.4, 100 mM NaCl, 0.4% NP-40, 10 mM MgCl2, 5 mM EDTA, 2 mM DTT, 30 μM GDP; one site binding hyperbola
T2 construct: Gαi3, human, UniProt P08754, full length; same plasmid as for the NMR studies; also called His-tagged Gαi3; tagged protein; source: E. coli, pET24d(+), purified as uncleaved His-tagged protein (HisPur Cobalt Resin); not shown: His tag, N-terminal, kept

Human His-Gαi3 S252A [4] = molecular target: T3, Human His-Gαi3 S252A (human, UniProt P08754 1-354, S252 mutated to A); experiment: as above
T3 construct: Gαi3, human, UniProt P08754, full length; also called S252 mutated to A; source: E. coli, pET24d(+), purified as uncleaved His-tagged protein (HisPur Cobalt Resin); not shown: His tag, N-terminal, kept

Human His-Gαi3 N256A [5] = molecular target: T4, Human His-Gαi3 N256A (human, UniProt P08754 1-354, N256 mutated to A); experiment: as above
T4 construct: Gαi3, human, UniProt P08754, full length; also called N256 mutated to A; source: E. coli, pET24d(+), purified as uncleaved His-tagged protein (HisPur Cobalt Resin); not shown: His tag, N-terminal, kept

[6] = molecular target: T5, Human His-Gαi3 ΔC9 (lacking the last nine residues) (human, UniProt P08754 1-345); experiment: as above
T5 construct: Gαi3, human, UniProt P08754, lacking the last nine residues; source: E. coli, pET24d(+), purified as uncleaved His-tagged protein (HisPur Cobalt Resin); not shown: His tag, N-terminal, kept

[7] = molecular target: T1, Full-length human Gαi3, untagged (NMR …); experiment: as above
Human His-Gαi3 WT [8] = molecular target: T2, Human His-Gαi3 WT; experiment: pull-down; 10 μg GST-GIV or GST-DAPLE on glutathione agarose beads (~1.25 μM); His-Gαi3 WT or mutants ~1 μM in solution; 4 h, 4 °C; 50 mM Tris-HCl pH 7.4, 100 mM NaCl, 0.4% NP-40, 10 mM MgCl2, 5 mM EDTA, 2 mM DTT, 30 μM GDP; Coomassie blue
Human His-Gαi3 S252A [9] = molecular target: T3, Human His-Gαi3 S252A; experiment: as above
Human His-Gαi3 N256A [10] = molecular target: T4, Human His-Gαi3 N256A; experiment: as above
[11] = molecular target: T5, Human His-Gαi3 ΔC9 (lacking the last …); experiment: as above
Human His-Gαi3 W211A = molecular target: T6, Human His-Gαi3 W211A (human, UniProt P08754 1-354, W211A); experiment: fluorescence polarisation; fluorescein-labelled peptide 0.025 μM, G protein 0–8 μM; room temperature; 50 mM Tris-HCl pH 7.4, 100 mM NaCl, 0.4% NP-40, 10 mM MgCl2, 5 mM EDTA, 2 mM DTT, 30 μM GDP; one site binding hyperbola
T6 construct: Gαi3, human, UniProt P08754, full length; source: E. coli, pET24d(+), purified as uncleaved His-tagged protein (HisPur Cobalt Resin); not shown: His tag, N-terminal, kept

His-tagged rat Gαi3 = molecular target: T7, His-tagged rat Gαi3 (rat, UniProt P08753 1-354); experiment: pull-down; as a1 but His-Gαi3 reloaded with GDP (Gαi3-[GDP]) and buffer supplemented with 100 μM GDP
T7 construct: Same protein in three nucleotide states (nucleotide-free, GDP, GDP/AlF4−); the states are told apart by the assays a1-a3; also called His-Gαi3; Gαi3-[GDP]; source: E. coli BL21(DE3), pET28b, purified (Superdex S75); nucleotide-depleted and reloaded or not with GDP or GDP/AlF4−
T7 sequence (P08753 whole entry): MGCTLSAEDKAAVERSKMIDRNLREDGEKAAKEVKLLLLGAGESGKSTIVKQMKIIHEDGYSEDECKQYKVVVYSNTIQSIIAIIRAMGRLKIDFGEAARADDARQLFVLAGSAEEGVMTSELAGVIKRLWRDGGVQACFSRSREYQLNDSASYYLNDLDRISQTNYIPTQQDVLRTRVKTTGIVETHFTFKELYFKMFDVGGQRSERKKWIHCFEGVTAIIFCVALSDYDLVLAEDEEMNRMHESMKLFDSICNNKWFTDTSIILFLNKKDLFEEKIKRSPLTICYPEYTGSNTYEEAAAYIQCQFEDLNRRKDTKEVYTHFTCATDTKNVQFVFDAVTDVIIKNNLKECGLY

T1 sequence (P08754 whole entry): as the sequence (P08753 whole entry) above, with S121P, T165S, E193D, D261E, V319I counted along it
T2 sequence (P08754 whole entry): as the sequence (P08753 whole entry) above, with S121P, T165S, E193D, D261E, V319I counted along it
T5 sequence (P08754 1-345, stated change not applied): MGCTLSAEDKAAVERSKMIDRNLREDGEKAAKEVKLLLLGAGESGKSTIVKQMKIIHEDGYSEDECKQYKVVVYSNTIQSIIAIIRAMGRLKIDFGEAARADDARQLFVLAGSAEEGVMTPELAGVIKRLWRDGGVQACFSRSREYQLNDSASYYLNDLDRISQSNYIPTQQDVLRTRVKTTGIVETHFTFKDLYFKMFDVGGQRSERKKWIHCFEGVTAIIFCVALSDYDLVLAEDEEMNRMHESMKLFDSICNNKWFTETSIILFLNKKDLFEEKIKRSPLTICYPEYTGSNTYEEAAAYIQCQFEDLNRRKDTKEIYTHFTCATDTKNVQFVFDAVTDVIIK
T3 sequence (P08754 whole entry S252A): as the sequence (P08753 whole entry) above, with S121P, T165S, E193D, S252A, D261E, V319I counted along it
T4 sequence (P08754 whole entry N256A): as the sequence (P08753 whole entry) above, with S121P, T165S, E193D, N256A, D261E, V319I counted along it
T6 sequence (P08754 whole entry W211A): as the sequence (P08753 whole entry) above, with S121P, T165S, E193D, W211A, D261E, V319I counted along it

| binding result (Human His-Gαi3 WT [3]) | binding result (Human His-Gαi3 WT [8]) | binding result (Human His-Gαi3 S252A [9]) | binding result (Human His-Gαi3 N256A [10]) | binding result [11] | Binder | also measured |
| --- | --- | --- | --- | --- | --- | --- |
| – | – | – | – | – | His-tagged human GIV residues 1,660–1,870 (GIV-CT) (domain or fragment, UniProt Q3V6T2-3 1660-1870, looked up, MALDI mass consistent with the tagged fragment lacking the initial methionine; source: E. coli BL21(DE3), pET28b, purified (Co2+ and Ni2+ columns, Superdex 200); not shown: His tag, N-terminal, kept) SETLESRHHKIKTGSPGSEVVTLQQFLEESNKLTSVQIKSSSQENLLDEVMKSLSVSSDFLGKDKPVSCGLARSVSGKTPGDFYDRRTTKPEFLRPGPRKTEDTYFISSAGKPTPGTQGKIKLVKESSLSRQSKDSNPYATLPRASSVISTAEGTTRRTSIHDFLTKDSRLPISVDSPPAAADSNTTAASNVDKVQESRNSKSRSREQQSS | binding result [1]: binds |
| – | – | – | – | – | KTGSPGSEVVTLQQFLEESNKLTSVQ (GIV (Girdin), human, residues 1,671–1,696; numbers on UniProt Q3V6T2-3; Made on p-methylbenzhydrylamine resin; also called GIV fragment 1,671–1,696; source: synthetic peptide) [GIV peptide, amino acids 1,671–1,696 (GIVpept)] | binding result [2]: binds |
| binds | – | – | – | – | {5,6‑carboxyfluorescein}-KTGSPGSEVVTLQQFLEESNKLTSVQIKSSS (numbers on UniProt Q3V6T2-3; also called GBA motif of GIV; GEF motif of GIV; source: synthetic peptide) [Fluorescein-labelled GIV peptide (residues 1,671–1,701)] | binding result (Human His-Gαi3 S252A [4]): binds; binding result (Human His-Gαi3 N256A [5]): binds; binding result [6]: binds; binding result [7]: binds |
| – | binds | binds | binds | binds | GST-DAPLE (1,650–1,745) (domain or fragment, human, UniProt Q9P219 1650-1745, looked up, DAPLE (dishevelled-associating protein with high frequency of leucines), human, residues 1,650–1,745, cloned from Kazusa's clone fh14721 (KIAA1509)) GTAPPYVGVRPCSASPSSEMVTLEEFLEESNRSSPTHDTPSCRDDLLSDYFRKASDPPAIGGQPGPPAKKEGAKMPTNFVAPTVKMAAPTSEGRPL | – |
| binds | – | – | – | – | {5,6‑carboxyfluorescein}-DEAEEFFELISKAQSNRADDQRGLLRKEDLVLPEFLR (RGS12, GoLoco motif, residues 1,185–1,221; 'human' stands at the head of the list 'human GIV ..., DAPLE ... or RGS12'; read as applying to all three; also called GoLoco motif of RGS12; RGS12 GoLoco motif; source: synthetic peptide) [Fluorescein-labelled RGS12 GoLoco peptide (residues 1,185–1,221)] | binding result (Human His-Gαi3 W211A): binds |
| – | binds | binds | binds | binds | GST-GIV (residues 1,671–1,755, containing its GBA motif) (domain or fragment, human, UniProt Q3V6T2-3 1671-1755, looked up, Girdin), human, residues 1,671–1,755) KTGSPGSEVVTLQQFLEESNKLTSVQIKSSSQENLLDEVMKSLSVSSDFLGKDKPVSCGLARSVSGKTPGDFYDRRTTKPEFLRP | binding result (His-tagged rat Gαi3): binds |
